# Experimental data published in patent US20080207498A1, “Methods for Treating Alzheimer's Disease” (priority 2005, published 2008).
# Key:
# [1] = molecular target: Purified human C1q (Quidel Corp.) (human) (UniProt P02745); experiment: reverse ELISA: PAP without competitor on C1q-coated plate
# [2] = molecular target: Highly purified FcγIII; experiment: reverse ELISA: PAP without peptide on FcγIII-coated plate
# [3] = molecular target: Highly purified FcγIIa; experiment: reverse ELISA: PAP without peptide on FcγIIa-coated plate
# [4] = molecular target: Highly purified FcγIIb; experiment: reverse ELISA: PAP without peptide on FcγIIb-coated plate
# [5] = molecular target: Human wt tau protein (441 residues; Sigma-Aldrich) (human) (UniProt P10636); experiment: reverse ELISA: PAP without peptide on plate coated with human wt tau
# [6] = molecular target: Human wt β amyloid peptide 1-40 (amyloid precursor protein (APP) fragment 1-40; Sigma-Aldrich) (human); experiment: reverse ELISA: PAP without peptide on plate coated with human wt β amyloid peptide 1-40
# Sequence of Preformed immune complex of peroxidase and rabbit anti-peroxidase IgG (PAP complex) (P00433 31-338, one chain of several): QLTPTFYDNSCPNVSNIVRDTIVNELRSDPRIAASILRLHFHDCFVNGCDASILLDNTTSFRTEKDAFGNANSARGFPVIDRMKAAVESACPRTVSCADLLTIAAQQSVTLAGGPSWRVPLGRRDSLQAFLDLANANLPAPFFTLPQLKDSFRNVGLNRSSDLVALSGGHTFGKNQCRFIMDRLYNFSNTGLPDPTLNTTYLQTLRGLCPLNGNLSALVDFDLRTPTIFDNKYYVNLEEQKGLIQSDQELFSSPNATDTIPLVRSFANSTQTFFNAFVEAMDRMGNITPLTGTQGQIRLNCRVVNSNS
# Sequence of Purified human C1q (Quidel Corp.) (human) (P02745 23-245 limits assumed, chain 1 of 3): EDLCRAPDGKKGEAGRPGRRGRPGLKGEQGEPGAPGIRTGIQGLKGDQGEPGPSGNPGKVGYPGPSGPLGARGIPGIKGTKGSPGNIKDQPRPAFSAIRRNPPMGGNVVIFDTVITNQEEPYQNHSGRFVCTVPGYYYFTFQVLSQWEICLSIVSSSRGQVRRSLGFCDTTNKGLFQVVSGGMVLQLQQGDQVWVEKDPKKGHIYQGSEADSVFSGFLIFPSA
# Sequence of Purified human C1q (Quidel Corp.) (human) (P02746 28-253 limits assumed, chain 2 of 3, further chain): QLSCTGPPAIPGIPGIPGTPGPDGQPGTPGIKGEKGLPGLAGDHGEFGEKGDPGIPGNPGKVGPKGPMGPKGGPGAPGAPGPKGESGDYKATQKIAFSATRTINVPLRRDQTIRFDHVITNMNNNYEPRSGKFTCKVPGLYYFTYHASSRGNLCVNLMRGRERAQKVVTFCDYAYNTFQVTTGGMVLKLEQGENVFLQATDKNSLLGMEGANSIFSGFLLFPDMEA
# Sequence of Purified human C1q (Quidel Corp.) (human) (P02747 29-245 limits assumed, chain 3 of 3, further chain): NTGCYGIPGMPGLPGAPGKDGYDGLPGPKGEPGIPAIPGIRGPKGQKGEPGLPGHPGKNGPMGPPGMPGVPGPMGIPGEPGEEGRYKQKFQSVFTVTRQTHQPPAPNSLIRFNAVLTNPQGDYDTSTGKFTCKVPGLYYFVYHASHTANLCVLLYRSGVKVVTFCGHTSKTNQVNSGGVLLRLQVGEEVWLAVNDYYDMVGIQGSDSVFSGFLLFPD
# Sequence of Human wt tau protein (441 residues; Sigma-Aldrich) (human) (P10636 other isoform, or with tags, fused parts or gaps limits assumed): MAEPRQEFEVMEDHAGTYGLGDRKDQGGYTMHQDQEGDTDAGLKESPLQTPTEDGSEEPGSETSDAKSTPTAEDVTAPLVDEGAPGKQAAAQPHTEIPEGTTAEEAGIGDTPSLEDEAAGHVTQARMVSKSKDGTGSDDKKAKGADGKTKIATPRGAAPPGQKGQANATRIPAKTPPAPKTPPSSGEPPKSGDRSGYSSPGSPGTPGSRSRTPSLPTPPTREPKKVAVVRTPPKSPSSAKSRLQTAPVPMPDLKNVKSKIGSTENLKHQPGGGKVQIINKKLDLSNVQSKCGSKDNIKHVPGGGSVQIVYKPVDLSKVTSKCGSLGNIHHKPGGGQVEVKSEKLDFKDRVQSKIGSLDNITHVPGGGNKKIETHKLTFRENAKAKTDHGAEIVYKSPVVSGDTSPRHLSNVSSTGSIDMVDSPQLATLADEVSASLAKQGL
substance,measurement,setting,value
Preformed immune complex of peroxidase and rabbit anti-peroxidase IgG (PAP complex) (from UniProt P00433 31-338),OD 405 nm,[1],2.35 OD
same,OD 405 nm,[2],1.59 OD
same,OD 405 nm,[3],1.6 OD
same,OD 405 nm,[4],1.39 OD
same,OD 405 nm,[5],0.695 OD
same,OD 405 nm,[6],3.28 OD
